US20160264649A1

Key:
Experiment in all cases: cell-based or functional assay
[1] = molecular target: HIV-1 Env of isolate MG RM-C-026 (HIV-1)
[2] = molecular target: HIV-1 Env of isolate THR0.18 (HIV-1)
[3] = molecular target: HIV-1 Env of isolate NL43 (HIV-1)
[4] = molecular target: HIV-1 Env of isolate 93TH305 (HIV-1)
[5] = molecular target: HIV-1 Env of isolate JRFL (HIV-1)
[6] = molecular target: HIV-1 Env of isolate MGRM-Chronic-B-011 (HIV-1)
[7] = molecular target: HIV-1 Env of isolate MGRM-Chronic-B-017 (HIV-1)
[8] = molecular target: HIV-1 Env of isolate 93IN905 (HIV-1)
[9] = molecular target: HIV-1 Env of isolate APV_17 (HIV-1)
[10] = molecular target: HIV-1 Env of isolate 6535.3 (HIV-1)
[11] = molecular target: HIV-1 Env of isolate MGRM-Chronic-B-010 (HIV-1)
[12] = molecular target: HIV-1 Env of isolate 93MW959 (HIV-1)
[13] = molecular target: HIV-1 Env of isolate MGRM-Chronic-B-024 (HIV-1)
[14] = molecular target: HIV-1 Env of isolate 98IN022 (HIV-1)
[15] = molecular target: HIV-1 Env of isolate MGRM-Chronic-B-018 (HIV-1)
[16] = molecular target: HIV-1 Env of isolate MG RM-C-027 (HIV-1)
[17] = molecular target: HIV-1 Env of isolate VLGCB3 (HIV-1)
[18] = molecular target: HIV-1 Env of isolate MGRM-Chronic-B-008 (HIV-1)
[19] = molecular target: HIV-1 Env of isolate MGRM-Chronic-B-002 (HIV-1)
[20] = molecular target: HIV-1 Env of isolate MGRM-Chronic-B-001 (HIV-1)
[21] = molecular target: HIV-1 Env of isolate CAAN.A2 (HIV-1)
[22] = molecular target: HIV-1 Env of isolate MGRM-Chronic-B-023 (HIV-1)
[23] = molecular target: HIV-1 Env of isolate MG RM-C-028 (HIV-1)
[24] = molecular target: HIV-1 Env of isolate MGRM-Chronic-B-020 (HIV-1)
[25] = molecular target: HIV-1 Env of isolate APV_6 (HIV-1)
[26] = molecular target: HIV-1 Env of isolate PVO.4 (HIV-1)
[27] = molecular target: HIV-1 Env of isolate TRJ04551.58 (HIV-1)
[28] = molecular target: HIV-1 Env of isolate 97ZA012 (HIV-1)
[29] = molecular target: HIV-1 Env of isolate MG RM-C-022 (HIV-1)
[30] = molecular target: HIV-1 Env of isolate MGRM-Chronic-B-012 (HIV-1)
[31] = molecular target: HIV-1 Env of isolate 92 BR 020 (HIV-1)
[32] = molecular target: HIV-1 Env of isolate QH0692.42 (HIV-1)
[33] = molecular target: HIV-1 Env of isolate MGRM-Chronic-B-004 (HIV-1)
[34] = molecular target: HIV-1 Env of isolate SC422661.8 (HIV-1)
[35] = molecular target: HIV-1 Env of isolate MG RM-C-023 (HIV-1)
[36] = molecular target: HIV-1 Env of isolate MG RM-C-020 (HIV-1)
[37] = molecular target: HIV-1 Env of isolate TRO.11 (HIV-1)
[38] = molecular target: HIV-1 Env of isolate MG RM-C-025 (HIV-1)
[39] = molecular target: HIV-1 Env of isolate SF162 (HIV-1) (UniProt P19550)
[40] = molecular target: HIV-1 Env of isolate MG RM-C-024 (HIV-1)
[41] = molecular target: HIV-1 Env of isolate APV_13 (HIV-1)
[42] = molecular target: HIV-1 Env of isolate JRCSF (HIV-1) (UniProt P20871)
[43] = molecular target: HIV-1 Env of isolate MGRM-Chronic-B-003 (HIV-1)

PGT-122 monoclonal antibody (4877_D15)
neutralization IC50 [1]: 6 ng/mL
neutralization IC50 [2]: > 50 µg/mL
neutralization IC50 [3]: > 50 µg/mL
neutralization IC50 [4]: 13 ng/mL
neutralization IC50 [5]: 0.026 µg/mL
neutralization IC50 [6]: > 50 µg/mL
neutralization IC50 [7]: 5.66 µg/mL
neutralization IC50 [8]: 13 ng/mL
neutralization IC50 [9]: 0.25 µg/mL
neutralization IC50 [10]: 6 ng/mL
neutralization IC50 [11]: 0.018 µg/mL
neutralization IC50 [12]: 0.016 µg/mL
neutralization IC50 [13]: 2.31 µg/mL
neutralization IC50 [14]: 0.032 µg/mL
neutralization IC50 [15]: > 50 µg/mL
neutralization IC50 [16]: 0.039 µg/mL
neutralization IC50 [17]: 8 ng/mL
neutralization IC50 [18]: 0.017 µg/mL
neutralization IC50 [19]: 1.8 µg/mL
neutralization IC50 [20]: 0.138 µg/mL
neutralization IC50 [21]: 0.011 µg/mL
neutralization IC50 [22]: 0.01 µg/mL
neutralization IC50 [23]: 2.22 µg/mL
neutralization IC50 [24]: 5 ng/mL
neutralization IC50 [25]: 0.019 µg/mL
neutralization IC50 [26]: 0.689 µg/mL
neutralization IC50 [27]: > 50 µg/mL
neutralization IC50 [28]: 4 ng/mL
neutralization IC50 [29]: 0.012 µg/mL
neutralization IC50 [30]: 0.066 µg/mL
neutralization IC50 [31]: 0.021 µg/mL
neutralization IC50 [32]: 0.493 µg/mL
neutralization IC50 [33]: 8 ng/mL
neutralization IC50 [34]: 0.103 µg/mL
neutralization IC50 [35]: 0.027 µg/mL
neutralization IC50 [36]: 14 µg/mL
neutralization IC50 [37]: 0.011 µg/mL
neutralization IC50 [38]: 8.69 µg/mL
neutralization IC50 [39]: 9 ng/mL
neutralization IC50 [40]: 0.102 µg/mL
neutralization IC50 [41]: 0.778 µg/mL
neutralization IC50 [42]: 0.057 µg/mL
neutralization IC50 [43]: 0.008 µg/mL

PGT-125 monoclonal antibody (5123_A06)
neutralization IC50 [1]: 5 ng/mL
neutralization IC50 [2]: > 50 µg/mL
neutralization IC50 [3]: > 50 µg/mL
neutralization IC50 [4]: 8 ng/mL
neutralization IC50 [5]: 0.009 µg/mL
neutralization IC50 [6]: 3.23 µg/mL
neutralization IC50 [7]: > 50 µg/mL
neutralization IC50 [8]: 9 ng/mL
neutralization IC50 [9]: 8.06 µg/mL
neutralization IC50 [10]: 10 ng/mL
neutralization IC50 [11]: 0.006 µg/mL
neutralization IC50 [12]: 37.5 µg/mL
neutralization IC50 [13]: > 50 µg/mL
neutralization IC50 [14]: 22.1 µg/mL
neutralization IC50 [15]: > 50 µg/mL
neutralization IC50 [16]: > 50 µg/mL
neutralization IC50 [17]: 15 ng/mL
neutralization IC50 [18]: > 50 µg/mL
neutralization IC50 [19]: 0.064 µg/mL
neutralization IC50 [20]: > 50 µg/mL
neutralization IC50 [21]: 5.47 µg/mL
neutralization IC50 [22]: > 50 µg/mL
neutralization IC50 [23]: 14 µg/mL
neutralization IC50 [24]: 87 ng/mL
neutralization IC50 [25]: 0.021 µg/mL
neutralization IC50 [26]: 0.042 µg/mL
neutralization IC50 [27]: 0.019 µg/mL
neutralization IC50 [28]: 2460 ng/mL
neutralization IC50 [29]: 1.23 µg/mL
neutralization IC50 [30]: 0.036 µg/mL
neutralization IC50 [31]: 0.016 µg/mL
neutralization IC50 [32]: 0.048 µg/mL
neutralization IC50 [33]: 7 ng/mL
neutralization IC50 [34]: 30.1 µg/mL
neutralization IC50 [35]: 1.31 µg/mL
neutralization IC50 [36]: > 50 µg/mL
neutralization IC50 [37]: 0.111 µg/mL
neutralization IC50 [38]: 42.5 µg/mL
neutralization IC50 [39]: 4 ng/mL
neutralization IC50 [40]: > 50 µg/mL
neutralization IC50 [41]: 0.007 µg/mL
neutralization IC50 [42]: 0.004 µg/mL
neutralization IC50 [43]: 0.157 µg/mL

PGT-121 monoclonal antibody (4838_L06; 4873_E03)
neutralization IC50 [1]: 2 ng/mL
neutralization IC50 [2]: > 50 µg/mL
neutralization IC50 [3]: > 50 µg/mL
neutralization IC50 [4]: 7 ng/mL
neutralization IC50 [5]: 0.021 µg/mL
neutralization IC50 [6]: > 50 µg/mL
neutralization IC50 [7]: > 50 µg/mL
neutralization IC50 [8]: 5 ng/mL
neutralization IC50 [9]: 0.066 µg/mL
neutralization IC50 [10]: 5 ng/mL
neutralization IC50 [11]: 0.014 µg/mL
neutralization IC50 [12]: 0.013 µg/mL
neutralization IC50 [13]: 0.195 µg/mL
neutralization IC50 [14]: 0.007 µg/mL
neutralization IC50 [15]: > 50 µg/mL
neutralization IC50 [16]: 0.011 µg/mL
neutralization IC50 [17]: 5 ng/mL
neutralization IC50 [18]: 0.007 µg/mL
neutralization IC50 [19]: 0.386 µg/mL
neutralization IC50 [20]: 0.102 µg/mL
neutralization IC50 [21]: 0.011 µg/mL
neutralization IC50 [22]: 0.005 µg/mL
neutralization IC50 [23]: 0.472 µg/mL
neutralization IC50 [24]: 4 ng/mL
neutralization IC50 [26]: 0.137 µg/mL
neutralization IC50 [27]: 7.09 µg/mL
neutralization IC50 [28]: 2 ng/mL
neutralization IC50 [29]: 0.015 µg/mL
neutralization IC50 [30]: 0.036 µg/mL
neutralization IC50 [31]: 0.014 µg/mL
neutralization IC50 [32]: 0.823 µg/mL
neutralization IC50 [33]: 9 ng/mL
neutralization IC50 [34]: 0.098 µg/mL
neutralization IC50 [35]: 0.017 µg/mL
neutralization IC50 [36]: > 50 µg/mL
neutralization IC50 [37]: 0.008 µg/mL
neutralization IC50 [38]: 46.8 µg/mL
neutralization IC50 [39]: 5 ng/mL
neutralization IC50 [40]: 0.052 µg/mL
neutralization IC50 [41]: 0.251 µg/mL
neutralization IC50 [42]: 0.027 µg/mL
neutralization IC50 [43]: 0.011 µg/mL
